B1: 1.53.3-uAb-IgG4k (antibody, V domains shown)
VH: QVQLQQWGAGLLKPSETLSLTCGVYGGSFSGYYWSWIRQPPGMGLEWIGEINHRGNTNYNPSLKSRVTISEDTSKNQFSLRLSSVTAADTAVYFCTRGEDYSDYDYYGDFWGQGTLVTVSS
VL: EIVLTQSPATLSLSQGERATLSCRASQSISSYLAWYQQKPGQAPRLLIYAASNRATGIPARFSGSGSGTDFTLTISSLEPEDFAIYYCQQRSNWPLTFGGGTKVEIK
notes: Fully human antibody from OMT rats; the other pair 15/16 goes with CDRs 7-12 in CLM-00002
B2: 3.40.19-uAb-IgG4L (antibody, V domains shown)
VH: QLQLQESGPGLVKPSETLSLTCTVSGDSISSTSYYWGWIRQPPGKGLEWIGSFYYSGSTYYNPSLKSRVTISVDTSKNQFSLKLNSVTAADTAVYYCARMQLWSYDVDVWGQGTTVTVSS
VL: QSALTQPASVSGSPGQSITISCTGTSSDVGGYDYVAWYQQHPGKVPKLMIYDVSERPSGVSNRFSGSKSGNTASLTISGLQAEDEADYYCSSYTSTTTLVVFGGGTKLSVL
notes: Fully human antibody from OMT rats; also called 3.40.19-uAb-hIgG4L

Experiments:
[1] = biological target: T1, human LAG-3, full length, on transfected cells (human, UniProt P18627 23-525); assay: cell-based or functional assay
T1 sequence: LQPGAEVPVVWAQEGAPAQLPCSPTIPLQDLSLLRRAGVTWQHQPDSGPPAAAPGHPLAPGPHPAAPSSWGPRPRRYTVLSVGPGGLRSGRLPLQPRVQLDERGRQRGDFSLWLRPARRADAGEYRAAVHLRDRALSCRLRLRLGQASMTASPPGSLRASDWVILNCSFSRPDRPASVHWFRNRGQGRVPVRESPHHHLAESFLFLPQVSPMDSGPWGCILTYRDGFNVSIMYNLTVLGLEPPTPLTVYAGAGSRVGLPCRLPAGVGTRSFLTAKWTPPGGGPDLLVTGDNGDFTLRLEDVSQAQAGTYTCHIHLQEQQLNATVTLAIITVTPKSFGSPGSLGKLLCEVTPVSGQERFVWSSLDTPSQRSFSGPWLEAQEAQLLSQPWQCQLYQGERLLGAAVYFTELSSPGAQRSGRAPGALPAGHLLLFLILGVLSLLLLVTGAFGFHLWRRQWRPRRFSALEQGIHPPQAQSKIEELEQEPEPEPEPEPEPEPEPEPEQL

human CD4 = biological target: T2, human CD4 (human, UniProt P01730 26-390, limits assumed); assay: ELISA, plate coated with 1 μg/mL human CD4
T2 construct: also called 人CD4蛋白

[2] = biological target: T3, mouse LAG-3 on Flp-In-CHO cells (mouse, UniProt Q61790 24-521); assay: FACS on Flp-In-CHO cells expressing mouse LAG-3
T3 construct: whole, on cells; also called 鼠LAG-3; 细胞表面小鼠LAG-3
T3 sequence (looked up): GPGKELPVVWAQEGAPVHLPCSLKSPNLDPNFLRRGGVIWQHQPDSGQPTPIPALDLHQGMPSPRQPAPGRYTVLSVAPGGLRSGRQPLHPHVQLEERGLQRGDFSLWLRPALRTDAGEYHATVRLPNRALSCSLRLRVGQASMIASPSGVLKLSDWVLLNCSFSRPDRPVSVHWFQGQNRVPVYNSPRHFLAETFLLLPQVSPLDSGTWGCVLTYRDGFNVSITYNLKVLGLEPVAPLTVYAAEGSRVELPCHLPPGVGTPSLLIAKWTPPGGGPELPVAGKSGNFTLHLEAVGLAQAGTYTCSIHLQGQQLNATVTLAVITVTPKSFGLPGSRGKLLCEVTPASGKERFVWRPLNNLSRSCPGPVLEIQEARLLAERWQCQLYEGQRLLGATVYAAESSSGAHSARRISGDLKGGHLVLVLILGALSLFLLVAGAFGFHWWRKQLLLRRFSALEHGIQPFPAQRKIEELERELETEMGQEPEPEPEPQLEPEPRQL

[3] = biological target: T4, cynomolgus LAG-3 on 293F cells (cynomolgus monkey); assay: FACS on 293F cells expressing cynomolgus LAG-3
T4 construct: whole, on cells; also called 食蟹猴LAG-3; 细胞表面食蟹猴LAG-3

| Binder | EC50(nM), IL-2 luciferase reporter in Jurkat cells expressing human LAG-3 with Raji cells and SEE [1] | binding result (human CD4) | binding result [2] | EC50 [3] |
| --- | --- | --- | --- | --- |
| B1 | 1.07 nM | no binding (tested: 1μg/mL) | no binding | 4.01 nM |
| B2 | 0.21 nM | no binding (tested: 1μg/mL) |  | 3.92 nM |

Reference: patent publication CN115057931A (GUANGZHOU YUHENG BIOTECHNOLOGY CO LTD, dated 2022)
